Measurements published in US20200181247A1.

Experiments:
[1] = biological target: A-beta42 Oligomer (synthetic, prepared in F12 medium) (human); assay: SPR (MASS-1) direct binding; hybridoma culture supernatant over immobilized A-beta42 oligomer
[2] = biological target: commercially-prepared stable A-beta42 Oligomers (SynAging SAS) (human); assay: SPR; antibody covalently immobilized, stable A-beta42 oligomers (1 microM) injected
[3] = biological target: T1, linear CGHHQKG (SEQ ID NO: 12) conjugated to BSA; assay: SPR (MASS-1) direct binding; hybridoma culture supernatant over immobilized BSA-conjugated peptide
T1 sequence (peptide, linear (not cyclized); conjugated to BSA): CGHHQKG

[4] = biological target: T2, cyclo(CGHHQKG) (SEQ ID NO: 12) conjugated to BSA; assay: as above
T2 sequence (peptide, cyclic peptide, cyclo(CGHHQKG); conjugated to BSA): CGHHQKG

[5] = biological target: A-beta42 Monomer (human); assay: SPR (MASS-1) direct binding; hybridoma culture supernatant over immobilized A-beta42 monomer
A-beta42 Monomer (human), sequence (peptide, as listed by the source): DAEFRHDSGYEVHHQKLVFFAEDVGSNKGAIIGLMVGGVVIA

[6] = biological target: A-beta42 Monomer (human); assay: SPR; purified antibody immobilized, A-beta preparation flowed over
[7] = biological target: A-beta42 Oligomer (synthetic, prepared in F12 medium) (human); assay: as above

A-beta42 Oligomer (synthetic, prepared in F12 medium) (human), sequence (peptide, as listed by the source): as above
commercially-prepared stable A-beta42 Oligomers (SynAging SAS) (human), sequence (peptide, as listed by the source): as above

binding response (RU) [1]: 56.8 RU
binding response units (BRUs), average [2]: 14.5 BRU
binding response (RU) [3]: 60.6 RU
binding response (RU) [4]: 469 RU
binding response (RU) [5]: -1.8 RU
binding response (RU) [6]: -23.8 RU
binding response (RU) [7]: 15.5 RU
B1: 301-3 (antibody, part only; not given: Light chain, two candidates, IgG3, V domains shown, part only)
VH: EVQLVESGGGLVKPGGSLKLSCAASGFTFSDYYMYWVRQTPEKRLEWVATISDGGSYTSYPDSVKGRFTISRDSAKNNLYLQMSSLKSEDTAMYYCARDYYGSNSYTSGFAYWGQGTLVTVSA
